This is an account of results in patent US20250043302A1, “MUTATED HYDROXYPHENYLPYRUVATE DIOXYGENASE POLYPEPTIDE, AND CODING GENE AND USE THEREOF” (BEIJING DABEINONG BIOTECHNOLOGY CO., LTD., priority 2021, published 2025).

Data set [1] has as its system Arabidopsis thaliana T1 plants. Description: Isoxaflutole tolerance of transgenic Arabidopsis thaliana T1 plants (spray, bleached leaf area grade, damage score).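 For Scores: Weighted damage index from 0 to 100 where higher means more damage.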 In kind it is in vivo. As to conditions: for Classification and statistics of the grade of pesticide damage Grade 0 / Classification and statistics of the grade of pesticide damage Grade 1 / Classification and statistics of the grade of pesticide damage Grade 2 / Classification and statistics of the grade of pesticide damage Grade 3: number of plants in grade. The essentials: (§1)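 T1 transformants selected by glufosinate; 18-day-old plants, with empty-vector and wild-type controls, sprayed with topramezone (25–200 g ai/ha), isoxaflutole (35–280 g ai/ha) or mesotrione (52.5–420 g ai/ha), water as 0×. Bleached leaf area fraction scored at 7 DAT as grades 0–3.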

Data set [2] concerns Arabidopsis thaliana T1 plants. Description: Mesotrione tolerance of transgenic Arabidopsis thaliana T1 plants (spray, bleached leaf area grade, damage score). Also noted: Scores: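 damage score 0-100 computed as Σ(N×S)/(T×M)×100 over grades 0-3 with higher meaning more damage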. As to conditions: for Classification and statistics of the grade of pesticide damage Grade 0 / Classification and statistics of the grade of pesticide damage Grade 1 / Classification and statistics of the grade of pesticide damage Grade 2 / Classification and statistics of the grade of pesticide damage Grade 3: number of plants in grade. In kind it is in vivo. The procedure, abridged:
as §1

B1: AsHPPDm-F415W-02: nucleotide sequence encoding Avena sativa HPPD with F415W; vector DBN11791 (nucleic acid)
DNA: ATGCCACCTACTCCAGCTACAGCTACTGGTGCTGCTGCTGCTGCCGTTACTCCTGAGCACGCTGCCAGGTCATTCCCCAGGGTGGTTCGCGTGAACCCCAGATCTGATAGGTTCCCAGTTCTGAGCTTCCACCATGTTGAGCTGTGGTGCGCTGATGCTGCTTCTGCTGCTGGCAGGTTCTCTTTCGCTCTTGGTGCTCCACTCGCTGCTAGATCTGATCTGTCTACAGGAAATAGCGCTCATGCCTCACTCCTGCTTCGCTCAGGTGCTTTGGCCTTCCTCTTCACCGCTCCATATGCTCCCCCACCTCAGGAGGCTGCTACTGCTGCTGCTACAGCCTCCATTCCAAGCTTCTCAGCTGATGCCGCTAGAACCTTCGCTGCTGCTCATGGACTTGCCGTGAGGTCTGTTGGTGTTCGCGTGGCTGATGCTGCTGAGGCTTTCAGAGTTTCCGTTGCCGGCGGAGCTAGGCCAGCTTTCGCTCCTGCTGATTTGGGACATGGTTTCGGCCTGGCTGAGGTTGAGCTTTACGGTGACGTGGTTCTCCGCTTCGTGTCTTACCCAGATGAGACTGACCTGCCTTTCCTTCCCGGCTTCGAGAGAGTTTCCTCTCCTGGTGCCGTGGATTACGGCCTGACAAGGTTCGACCACGTGGTTGGAAACGTTCCCGAGATGGCTCCAGTGATCGATTACATGAAGGGCTTCCTTGGATTCCATGAGTTCGCCGAGTTCACTGCTGAGGACGTGGGAACCACTGAGTCCGGTTTGAACTCTGTGGTTCTCGCCAACAATTCTGAGGCTGTTTTGCTCCCTCTGAATGAGCCTGTGCATGGAACCAAGAGGAGAAGCCAGATTCAAACTTACCTGGAGTACCACGGTGGCCCTGGAGTTCAGCATATCGCCCTTGCTTCTAATGATGTGTTGCGCACACTCAGAGAGATGCGCGCCAGAACCCCCATGGGAGGTTTCGAGTTCATGGCCCCACCACAGGCTAAGTACTACGAGGGCGTTAGAAGGATTGCTGGAGACGTGTTGAGCGAGGAGCAGATCAAGGAGTGCCAAGAGCTGGGTGTTCTTGTGGATAGGGATGACCAGGGCGTTCTGCTTCAAATTTTCACTAAGCCAGTGGGCGACCGCCCTACATTCTTCCTTGAGATGATTCAAAGAATCGGCTGCATGGAGAAGGATGAGGTTGGACAGGAGTACCAAAAGGGCGGATGCGGTGGCTTCGGAAAGGGTAACTGGAGCGAGTTGTTCAAGTCAATCGAGGACTACGAGAAGAGCCTCGAGGTGAAGCAGTCAGTGGTTGCCCAAAAGTCCTGA
modifications: AsHPPDm-F415W-02 Nucleotide Sequence
notes: vector DBN11791
Regarding B1, in data set [1] (isoxaflutole 140 g ai/ha), the Resistance evaluation entry is “Moderately”; the Scores is recorded as 31; the “Classification and statistics of the grade of pesticide damage Grade 0” value was 5; the “Classification and statistics of the grade of pesticide damage Grade 1” value was found to be 7. In data set [1] (isoxaflutole 140 g ai/ha), the “Classification and statistics of the grade of pesticide damage Grade 2” value was found to be 4; the “Classification and statistics of the grade of pesticide damage Grade 3” value is on record as 0. In data set [1] (isoxaflutole 280 g ai/ha), the Resistance evaluation result is given as “Poorly”; the Scores amounted to 63; the “Classification and statistics of the grade of pesticide damage Grade 0” value came to 0; the “Classification and statistics of the grade of pesticide damage Grade 1” value is on record as 2. Also, in data set [1] (isoxaflutole 280 g ai/ha), the “Classification and statistics of the grade of pesticide damage Grade 2” value was determined as 14; the “Classification and statistics of the grade of pesticide damage Grade 3” value is listed as 0. In addition, in data set [2] (mesotrione 210 g ai/ha), the Resistance evaluation result is “Non-resistant”; the Scores amounted to 81; the “Classification and statistics of the grade of pesticide damage Grade 0” value is listed as 0; the “Classification and statistics of the grade of pesticide damage Grade 1” value is 0. For the same molecule, in data set [2] (mesotrione 210 g ai/ha), the “Classification and statistics of the grade of pesticide damage Grade 2” value was determined as 9; the “Classification and statistics of the grade of pesticide damage Grade 3” value is 7. For the same molecule, in data set [2] (mesotrione 420 g ai/ha), the Resistance evaluation result was “Non-resistant”; the Scores amounted to 100; the “Classification and statistics of the grade of pesticide damage Grade 0” value is listed as 0; the “Classification and statistics of the grade of pesticide damage Grade 1” value is on record as 0. In data set [2] (mesotrione 420 g ai/ha), the “Classification and statistics of the grade of pesticide damage Grade 2” value is listed as 0; the “Classification and statistics of the grade of pesticide damage Grade 3” value is 16.
